Measurements taken from paper PMC8787478.

Columns and labels:
Assay in all cases: EMSA
Details in all cases: EMSA: 10 mM Tris pH 7.5, 50 mM KCl, 1 mM EDTA, 1 mM DTT, 5% glycerol, 100 ug/mL BSA, 5 ug/mL poly(dI-dC), 0.25 nM probe, 25 C; footprinting: 10 mM Tris pH 8.0 …
[1] = biological target: T1, His6-AlgR (Pseudomonas aeruginosa PAK) (UniProt P26275)
T1 sequence: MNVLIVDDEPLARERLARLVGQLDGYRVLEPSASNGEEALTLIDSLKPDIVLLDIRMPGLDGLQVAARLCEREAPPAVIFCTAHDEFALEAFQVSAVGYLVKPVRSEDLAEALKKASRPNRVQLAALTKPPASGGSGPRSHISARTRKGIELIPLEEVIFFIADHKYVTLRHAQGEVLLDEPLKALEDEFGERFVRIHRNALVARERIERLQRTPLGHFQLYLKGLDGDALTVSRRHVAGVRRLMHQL

[2] = biological target: T2, Vfr (Pseudomonas aeruginosa) (UniProt P55222)
T2 sequence: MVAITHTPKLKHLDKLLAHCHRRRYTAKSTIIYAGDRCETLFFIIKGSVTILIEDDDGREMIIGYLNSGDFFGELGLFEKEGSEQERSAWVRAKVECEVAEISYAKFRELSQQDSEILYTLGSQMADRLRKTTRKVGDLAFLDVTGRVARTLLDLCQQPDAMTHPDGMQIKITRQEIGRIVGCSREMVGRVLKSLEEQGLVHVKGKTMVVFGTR

[3] = biological target: T3, Vfr;His6-AlgR (Pseudomonas aeruginosa;Pseudomonas aeruginosa PAK) (UniProt P55222+P26275)
T3 sequence 1: T2 sequence
T3 sequence 2: T1 sequence

[4] = system: His6-AlgR (Pseudomonas aeruginosa PAK)

Substance	binding [2]	other results
GCATACCGTTGCCTGGCAACTGATCCTCAACCGGCAGGGCCGGCTCCGTACCGCGAGCGCCAGGGAGAACCGGGAGAAACGTGAGCTATGCAGCACTTCCGGATGATCATGGACCAGTTGTCCTGCCCCACGGGCCGACCGTCAACGACCGCAAGACGCTCCCAGGCCCGTTTGGCATGCTTTCCAGGCGTAGAC (double strand) [PfimU WT]	binds	binding [1]: binds; binding [3]: binds
GTACGGGCGAAATAAAGCACCGAAATGCCATCTGCCGCAAAAAACCGCGAAACAGCGCTCGTTCCGGCTTCGTCGACGAGCCGCCGGTTTTTCCTCCCGGCCAGTAATCATCGTTGCCCTTTGCCCGTCACGCAGGCCGCGCG (double strand) [PalgZ VBS1 mutant]	binds more weakly	–
GTACGGGCGAAATAAAGCACCGAAATGTCATCTGCCAAATCAAACCACAGAACAGCGATACTTCCGGCTTCGTCGACGAGCCGCCGGTTTTTCCTCCCGGCCAGTAATCATCGTTGCCCTTTGCCCGTCACGCAGGCCGCGCG (double strand) [PalgZ VBS1-2-3 mutant]	no binding	–
GTACGGGCGAAATAAAGCACCGAAATGTCATCTGCCAAATCAAACCACAGAACAGCGATACTTCCGGCTTCGTCGACGAGCCGCCGGTTTTTCCTCCCGGCCTGCTATCATCGTCGCACTTTGCCCGTCACGCAGGCCGCGCG (double strand) [PalgZ VBS2-3 mutant]	binds more weakly	–
GTACGGGCGAAATAAAGCACCGAAATGTCATCTGCCAAATCAAACCGCGAAACAGCGCTCGTTCCGGCTTCGTCGACGAGCCGCCGGTTTTTCCTCCCGGCCAGTAATCATCGTTGCCCTTTGCCCGTCACGCAGGCCGCGCG (double strand) [PalgZ VBS1-3 mutant (VBS1 and VBS3)]	binds more weakly	–
GTACGGGCGAAATAAAGCACCGAAATGTCATCTGCCAAATCAAACCGCGAAACAGCGCTCGTTCCGGCTTCGTCGACGAGCCGCCGGTTTTTCCTCCCGGCCTGCTATCATCGTCGCACTTTGCCCGTCACGCAGGCCGCGCG (double strand) [PalgZ VBS3 mutant]	binds	–
PfimU WT	–	K half [4]: > 351 nM
